EP2574667A1, “Enzyme variants” (Technische Universität Graz, priority 2011, dated 2013)

How the values were obtained:
[1] = target: T1, 4-hydroxymandelate synthase (Hms, HMS) from Streptomyces coelicolor A3 (2), wild type, SEQ ID No. 1 (Streptomyces coelicolor, UniProt Q9Z4X7); settings: Table 2; apparent, air saturation (260 µM dioxygen), Tris buffer 20 mM pH 7.5, 25°C
T1 sequence (Q9Z4X7 1-371): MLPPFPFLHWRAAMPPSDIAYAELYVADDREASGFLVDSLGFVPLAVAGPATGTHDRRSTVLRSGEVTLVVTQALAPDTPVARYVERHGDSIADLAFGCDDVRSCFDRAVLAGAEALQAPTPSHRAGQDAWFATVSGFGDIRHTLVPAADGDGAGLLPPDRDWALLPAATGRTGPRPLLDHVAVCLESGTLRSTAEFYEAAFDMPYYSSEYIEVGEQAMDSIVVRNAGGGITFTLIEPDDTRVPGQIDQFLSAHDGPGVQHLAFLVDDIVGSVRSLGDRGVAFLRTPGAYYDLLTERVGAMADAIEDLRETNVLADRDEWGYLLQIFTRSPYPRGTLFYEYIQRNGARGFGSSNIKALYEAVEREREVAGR
Description: (§3) The reactivity of HMS towards a range of aromatic oxo-acids was assessed, whereby the impact of substituents in the para-position of the aromatic ring regarding electronic structure and size was probed. […] Where activities were high enough to allow a steady state kinetic analysis, specific activities (kcat) and Michaelis Menten constants (Km) were determined (the assays were performed at air saturation (=260µM dioxygen concentration, therefore all kinetic constants are apparent)). […] Reactions were performed in Tris buffer (20 mM, pH 7.5), at 25°C at air saturation.

O=C(O)C(=O)Cc1ccccc1 [2] = experiment: Steady state kinetics by O2 depletion, HMS variant I236F; format: biochemical, Streptomyces coelicolor A3 (2); settings: other: Table 3, apparent, air saturation, pH 7.5, 25.0 °C
Description: (§1) Dioxygen consumption was continuously monitored using a micro-optode O2 sensor (Microtox TX3-AOT, Presens GmbH,Regensburg, Germany). Assays were generally performed at 25°C in air saturated 20 mM Tris/HCl buffer, pH 7.5 with enzyme concentrations of approx. 20 µM. To start the reaction, substrate aliquots were added from 5 mM stock solutions of the respective substrate to the desired end-concentration in a total volume of 500 µL. Initial rates were determined by linear regression analysis using the initial, linear part of the O2 depletion curve. O2 consumption rates from blanks that contained substrate in the absence of enzyme were subtracted as necessary. Specific activities were obtained by relating measured rates of O2 depletion to the protein derived Fe(II) content in the assay.
(§2) Kinetic analysis was performed via measuring O2 depletion. Kinetic parameters are apparent, as measurements were performed at air saturation. Product analysis was performed via HPLC (method is outlined in Appendix B) and confirmed via GC-MS. It could be shown that the enzyme converts phenylpyruvate analogues as a whole cell system, when a substrate analogue (e.g. p-F-phenylpyruvate) was added to cultures of E.coli BL21 cells overexpressing HMS variant S221M_V223M_Y359A. The overexpression was induced with IPTG as described in Material and Methods. […]

O=C(O)C(=O)Cc1ccccc1 [3] = experiment: Steady state kinetics by O2 depletion, HMS variant S221M; format: biochemical, Streptomyces coelicolor A3 (2); settings: other: Table 3, apparent, air saturation, pH 7.5, 25.0 °C
Description: as §1, §2

O=C(O)C(=O)Cc1ccccc1 [4] = experiment: Steady state kinetics by O2 depletion, HMS variant S221M_Y359A; format: biochemical, Streptomyces coelicolor A3 (2); settings: other: Table 3, apparent, air saturation, pH 7.5, 25.0 °C
Description: as §1, §2

O=C(O)C(=O)Cc1ccccc1 [5] = experiment: Steady state kinetics by O2 depletion, HMS variant V223F Y359A; format: biochemical, Streptomyces coelicolor A3 (2); settings: other: Table 3, apparent, air saturation, pH 7.5, 25.0 °C
Description: as §1, §2

O=C(O)C(=O)Cc1ccccc1 [6] = experiment: Steady state kinetics by O2 depletion, HMS variant V223F; format: biochemical, Streptomyces coelicolor A3 (2); settings: other: Table 3, apparent, air saturation, pH 7.5, 25.0 °C
Description: as §1, §2

O=C(O)C(=O)Cc1ccccc1 [7] = experiment: Steady state kinetics by O2 depletion, HMS variant V223M; format: biochemical, Streptomyces coelicolor A3 (2); settings: other: Table 3, apparent, air saturation, pH 7.5, 25.0 °C
Description: as §1, §2

O=C(O)C(=O)Cc1ccccc1 [8] = experiment: Steady state kinetics by O2 depletion, HMS variant V223W; format: biochemical, Streptomyces coelicolor A3 (2); settings: other: Table 3, apparent, air saturation, pH 7.5, 25.0 °C
Description: as §1, §2

O=C(O)C(=O)Cc1ccccc1 [9] = experiment: Steady state kinetics by O2 depletion, HMS variant Y359A; format: biochemical, Streptomyces coelicolor A3 (2); settings: other: Table 3, apparent, air saturation, pH 7.5, 25.0 °C
Description: as §1, §2

[10] = substrate: COc1ccc(CC(=O)C(=O)O)cc1; experiment: purified protein, by the assay type; settings: other: Table 2, apparent, air saturation (260 µM dioxygen), Tris buffer 20 mM pH 7.5, 25°C
Description: as §3

[11] = substrate: Cc1ccc(CC(=O)C(=O)O)cc1; experiment: purified protein, by the assay type; settings: other: Table 2, apparent, air saturation (260 µM dioxygen), Tris buffer 20 mM pH 7.5, 25°C
Description: as §3

[12] = substrate: O=C(O)C(=O)Cc1ccc(F)cc1; experiment: purified protein, by the assay type; settings: other: Table 2, apparent, air saturation (260 µM dioxygen), Tris buffer 20 mM pH 7.5, 25°C
Description: as §3

[13] = substrate: O=C(O)C(=O)Cc1ccc([N+](=O)[O-])cc1; experiment: purified protein, by the assay type; settings: other: Table 2, apparent, air saturation (260 µM dioxygen), Tris buffer 20 mM pH 7.5, 25°C
Description: as §3

[14] = substrate: O=C(O)C(=O)Cc1ccccc1; experiment: purified protein, by the assay type; settings: other: Table 3; apparent, air saturation, O2 depletion; pH 7.5; 25.0 °C

Molecule: COc1ccc(CC(=O)C(=O)[O-])cc1.[Na+]
- kcat [1]: 0.96 ± 0.12 s⁻¹

Molecule: 4-hydroxymandelate synthase (HMS) from Streptomyces coelicolor A3 (2), variant I236F (Streptomyces coelicolor A3(2); I236F)
- Km (O=C(O)C(=O)Cc1ccccc1 [2]): 2000 µM
- kcat (O=C(O)C(=O)Cc1ccccc1 [2]): 0.9 s⁻¹

Molecule: 4-hydroxymandelate synthase (HMS) from Streptomyces coelicolor A3 (2), variant S221M, SEQ ID No. 6 (Streptomyces coelicolor A3(2); S221M)
- Km (O=C(O)C(=O)Cc1ccccc1 [3]): 330 µM
- kcat (O=C(O)C(=O)Cc1ccccc1 [3]): 1.9 s⁻¹

Molecule: 4-hydroxymandelate synthase (HMS) from Streptomyces coelicolor A3 (2), variant S221M_Y359A, SEQ ID No. 8 (Streptomyces coelicolor A3(2); S221M/Y359A)
- Km (O=C(O)C(=O)Cc1ccccc1 [4]): 240 µM
- kcat (O=C(O)C(=O)Cc1ccccc1 [4]): 1.1 s⁻¹

Molecule: 4-hydroxymandelate synthase (HMS) from Streptomyces coelicolor A3 (2), variant V223F Y359A (V223F_Y359A), SEQ ID No. 7 (Streptomyces coelicolor A3(2); V223F/Y359A)
- Km (O=C(O)C(=O)Cc1ccccc1 [5]): 1000 µM
- kcat (O=C(O)C(=O)Cc1ccccc1 [5]): 2.1 s⁻¹

Molecule: 4-hydroxymandelate synthase (HMS) from Streptomyces coelicolor A3 (2), variant V223F, SEQ ID No. 2 (Streptomyces coelicolor A3(2); V223F)
- Km (O=C(O)C(=O)Cc1ccccc1 [6]): 27 µM
- kcat (O=C(O)C(=O)Cc1ccccc1 [6]): 1.1 s⁻¹

Molecule: 4-hydroxymandelate synthase (HMS) from Streptomyces coelicolor A3 (2), variant V223M, SEQ ID No. 4 (Streptomyces coelicolor A3(2); V223M)
- Km (O=C(O)C(=O)Cc1ccccc1 [7]): 230 µM
- kcat (O=C(O)C(=O)Cc1ccccc1 [7]): 1.9 s⁻¹

Molecule: 4-hydroxymandelate synthase (HMS) from Streptomyces coelicolor A3 (2), variant V223W, SEQ ID No. 3 (Streptomyces coelicolor A3(2); V223W)
- Km (O=C(O)C(=O)Cc1ccccc1 [8]): 230 µM
- kcat (O=C(O)C(=O)Cc1ccccc1 [8]): 0.5 s⁻¹

Molecule: 4-hydroxymandelate synthase (HMS) from Streptomyces coelicolor A3 (2), variant Y359A, SEQ ID No. 5 (Streptomyces coelicolor A3(2); Y359A)
- Km (O=C(O)C(=O)Cc1ccccc1 [9]): 270 µM
- kcat (O=C(O)C(=O)Cc1ccccc1 [9]): 4.8 s⁻¹

B1: 4-hydroxymandelate synthase (Hms, HMS) from Streptomyces coelicolor A3 (2), wild type, SEQ ID No. 1 (Streptomyces coelicolor A3(2)) (protein)
chain: T1 sequence (Q9Z4X7 1-371)
- Km [10]: 160 ± 70 µM
- kcat [11]: 0.13 ± 0.02 s⁻¹
- kcat [12]: 0.077 ± 0.004 s⁻¹
- kcat [13]: 0.035 ± 0.007 s⁻¹
- Km [14]: 350 µM
- kcat [14]: 0.9 s⁻¹
